Results as given in US20040138431A1.

Legend:
[1] = target: P75 and trkA receptors on rat PC-12 cell membranes (rat) (UniProt P35739); test: cell-based or functional assay
[2] = target: P75 and trkA receptors on rat PC-12 cell membranes (rat) (UniProt P35739); test: radioreceptor assay, competitive binding against NGF standard on rat PC-12 cell membranes

Chain of P75 and trkA receptors on rat PC-12 cell membranes (rat) (P35739 33-799, chain 1 of 2): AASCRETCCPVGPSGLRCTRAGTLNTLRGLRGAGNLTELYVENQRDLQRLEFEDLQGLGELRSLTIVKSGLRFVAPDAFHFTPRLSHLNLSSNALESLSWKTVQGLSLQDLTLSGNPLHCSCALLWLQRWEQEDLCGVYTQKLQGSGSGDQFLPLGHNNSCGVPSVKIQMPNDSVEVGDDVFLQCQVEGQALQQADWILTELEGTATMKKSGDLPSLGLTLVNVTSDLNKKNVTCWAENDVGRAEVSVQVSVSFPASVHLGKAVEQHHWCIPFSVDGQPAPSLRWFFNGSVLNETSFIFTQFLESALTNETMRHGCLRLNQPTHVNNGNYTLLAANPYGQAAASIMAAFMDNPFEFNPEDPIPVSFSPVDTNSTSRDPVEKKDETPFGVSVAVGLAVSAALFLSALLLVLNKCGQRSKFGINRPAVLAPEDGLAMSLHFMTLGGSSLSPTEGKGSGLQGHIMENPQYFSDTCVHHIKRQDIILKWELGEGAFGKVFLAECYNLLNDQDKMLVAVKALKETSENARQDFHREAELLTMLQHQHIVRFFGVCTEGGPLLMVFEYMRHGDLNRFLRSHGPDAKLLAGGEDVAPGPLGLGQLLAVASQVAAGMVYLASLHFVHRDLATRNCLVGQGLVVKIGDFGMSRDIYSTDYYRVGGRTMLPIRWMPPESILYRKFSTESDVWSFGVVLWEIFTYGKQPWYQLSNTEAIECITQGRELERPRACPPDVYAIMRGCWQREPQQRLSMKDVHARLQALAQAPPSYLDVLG
Chain of P75 and trkA receptors on rat PC-12 cell membranes (rat) (P07174 30-425, chain 2 of 2, further chain): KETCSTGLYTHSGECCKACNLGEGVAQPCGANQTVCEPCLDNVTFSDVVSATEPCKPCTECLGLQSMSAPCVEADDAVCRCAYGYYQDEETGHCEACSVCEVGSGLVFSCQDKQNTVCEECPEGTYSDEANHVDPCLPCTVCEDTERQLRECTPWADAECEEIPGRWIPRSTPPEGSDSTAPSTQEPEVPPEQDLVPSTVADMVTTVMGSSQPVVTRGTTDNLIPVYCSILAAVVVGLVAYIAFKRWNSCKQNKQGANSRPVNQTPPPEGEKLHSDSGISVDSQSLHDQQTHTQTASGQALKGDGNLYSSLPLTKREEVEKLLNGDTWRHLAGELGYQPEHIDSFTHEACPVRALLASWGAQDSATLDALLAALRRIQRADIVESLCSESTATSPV
Chain of 120/120 rhNGF homodimer (NGF-120, full-length 120/120 nerve growth factor) (P01138 122-241 limits assumed): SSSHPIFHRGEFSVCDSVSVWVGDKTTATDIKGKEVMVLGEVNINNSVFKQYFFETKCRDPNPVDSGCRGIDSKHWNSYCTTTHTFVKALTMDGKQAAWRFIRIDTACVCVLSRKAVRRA

PC-12 based assay, activity relative to the 118/118 form [1]: 60% | percent as active as the 118/118 species [2]: 80 to 90%
Substance: 120/120 rhNGF homodimer (NGF-120, full-length 120/120 nerve growth factor) (from UniProt P01138 122-241) (ligand)
